Residue numbers refer to the chain shown, from its start. Numbers in names are those of the source. Where “and” joins values, the source holds several entries; their conditions need not be identical. Identical values can stand only once. Like-named read-outs stand apart in the source and are kept apart here. One block for each molecule: values may come before it.
Legend:
[1] = target: T1, Active human KLK5 (human, UniProt Q9Y337 67-293)
[2] = target: T1, Active human KLK5; experiment: cell-based or functional assay
[3] = target: T1, Active human KLK5; experiment: SPR (Biacore T200, 25 C); IgG captured on anti-human IgG Fc, human KLK5 as analyte; 1:1 model; duplicate sample
Protocol: (§1) The kinetics of these grafts for binding to human KLK5 were assessed by surface plasmon resonance (Biacore T200) at 25° C.
(§2) A goat anti-human IgG Fc specific antibody (Jackson ImmunoResearch) was immobilised on a CM5 Sensor Chip via amine coupling chemistry to a level of approximately 7000RU. Each analysis cycle consisted of capture of the anti-KLK5 IgG molecules to the anti Fc surface, injection of KLK5 analyte (prepared in house) for 180 s at 30 μl/min followed by 600 s dissociation. At the end of each cycle the surface was regenerated at a flowrate of 10 μL/min using a 60 s injection of 50 mM HCl followed by a 30 s injection of 5 mM NaOH and a final 60 s injection of 50 mM HCl. Human KLK5 was titrated from 20 nM to 0.74 nM (3×3-fold serial dilutions) in HBS-EP+running buffer (GE Healthcare) supplemented with NaCl to a final concentration of 300 mM. Buffer blank injections were included to subtract instrument noise and drift.
(§3) Kinetic parameters were determined using a 1:1 binding model using Biacore T200 Evaluation software.

[4] = target: T1, Active human KLK5; experiment: SPR (Biacore T200, 25 C); IgG captured on anti-human IgG Fc, human KLK5 as analyte; 1:1 model
Protocol: as §1, §2, §3

[5] = target: T1, Active human KLK5; experiment: SPR; rabbit antibody 10273 captured on anti-rabbit Fc and saturated with 20 nM human KLK5, LEKTI D5 Fab fusion as analyte (KLK5 in complex with 10273); 1:1 model
Protocol: (§4) 20 nM of human KLK5 was then injected until the surface reached saturation. LEKTI D5 Fab fusion protein (generated as described in example 1) was then injected at concentrations between 30 μM and 100 nM. Values from buffer only injections were first subtracted from those obtained with the analytes before fitting to a 1:1 binding kinetic model in Biacore™ evaluation software (GE Life Sciences™)
(§5) As reference, LEKTI D5 Fab fusion protein was immobilised to the chip surface prior to monitoring the interaction with human KLK5.

[6] = target: T1, Active human KLK5; experiment: SPR; rabbit antibody 10273 captured on anti-rabbit Fc and saturated with 20 nM human KLK5, LEKTI D5 Fab fusion as analyte (KLK5 in complex with 10273); average value n = 2; human KLK5 already in complex with captured rabbit antibody 10273; LEKTI D5 Fab fusion as analyte; average n = 2
Protocol: as §4, §5

IC50 (read off the curve) [1]: 200000 pM | IC50 (M), inhibition of kallikrein protease activity (fluorogenic peptide substrate) [2]: 1.03e-10 M
Molecule: Human LEKTI D5 rabbit Fc (Fc fusion)

Kd [3]: 410 pM and 309 pM | koff [3]: 0.000175 s⁻¹ and 0.000133 s⁻¹ | kon [3]: 427000 M⁻¹ s⁻¹ and 257000 M⁻¹ s⁻¹
B1: 10273gL2-Q1RgH1-D19N (antibody, human IgG4 S228P, kappa, V domains shown)
VH: EVQLVESGGGLVQPGGSLRLSCAVSGFSLSSYGMSWVRQAPGKGLEWIGIISSSGSTYYASWAKGRFTISKDSSKNTVYLQMNSLRAEDTAVYYCARDHIYRYDDYGDYPTYYGMNPWGQGTTVTVSS
VL: AIQLTQSPSSLSASVGDRVTITCRSSQSVYNNNDLAWYQQKPGKAPKLLIYRASTLASGVPSRFSGSGSGTDFTLTISSLQPEDFATYYCLGGYDDDVDTYTFGGGTKVEIKR
modifications: sulphation (+80 Da) of Tyr 9 of CDR-H3, 80% of heavy chain (Table 7)
notes: Humanized graft, hIgG4P

Kd [4]: 6900 pM | koff [4]: 0.00251 s⁻¹ | kon [4]: 364000 M⁻¹ s⁻¹
B2: 10273 gL2-Q1RgH1-D19N-T14V (antibody, human IgG4 S228P, kappa, V domains shown)
VH: B1 VH with T111V
VL: B1 VL
modifications: sulphation (+80 Da) of Tyr 9 of CDR-H3, 75% of heavy chain (Table 7)
notes: Humanized graft, hIgG4P

Kd [4]: 554 pM | koff [4]: 0.0002 s⁻¹ | kon [4]: 362000 M⁻¹ s⁻¹
B3: 10273 gL2-Q1RgH1-D19N-Y9F (antibody, human IgG4 S228P, kappa, V domains shown)
VH: B1 VH with Y106F
VL: B1 VL
notes: Humanized graft, hIgG4P

Kd [4]: 249 pM | koff [4]: 0.000139 s⁻¹ | kon [4]: 558000 M⁻¹ s⁻¹
B4: 10273 gL2-Q1RgH1-D19N-Y15F (antibody, human IgG4 S228P, kappa, V domains shown)
VH: B1 VH with Y112F
VL: B1 VL
modifications: sulphation (+80 Da) of Tyr 9 of CDR-H3, 85% of heavy chain (Table 7)
notes: Humanized graft, hIgG4P

Kd [4]: 318 pM | koff [4]: 0.000138 s⁻¹ | kon [4]: 432000 M⁻¹ s⁻¹
B5: 10273 gL2-Q1RgH1-D19N-Y12F (antibody, human IgG4 S228P, kappa, V domains shown)
VH: B1 VH with Y109F
VL: B1 VL
modifications: sulphation (+80 Da) of Tyr 9 of CDR-H3, 75% of heavy chain (Table 7)
notes: Humanized graft, hIgG4P

Kd [4]: 5770 pM | koff [4]: 0.0016 s⁻¹ | kon [4]: 277000 M⁻¹ s⁻¹
B6: 10273 gL2-Q1RgH1-D19N-Y16F (antibody, human IgG4 S228P, kappa, V domains shown)
VH: B1 VH with Y113F
VL: B1 VL
modifications: sulphation (+80 Da) of Tyr 9 of CDR-H3, 75% of heavy chain (Table 7)
notes: Humanized graft, hIgG4P

Kd [4]: 644 pM | koff [4]: 0.000165 s⁻¹ | kon [4]: 257000 M⁻¹ s⁻¹
B7: 10273 gL2-Q1RgH1-D19N-T14S (antibody, human IgG4 S228P, kappa, V domains shown)
VH: B1 VH with T111S
VL: B1 VL
modifications: sulphation (+80 Da) of Tyr 9 of CDR-H3, 65% of heavy chain (Table 7)
notes: Humanized graft, hIgG4P

Kd [4]: 164 pM | koff [4]: 8.45e-05 s⁻¹ | kon [4]: 514000 M⁻¹ s⁻¹
B8: 10273 gL2gH1 (antibody, human IgG4 S228P, kappa, V domains shown)
VH: B1 VH with N116D
VL: B1 VL with R24Q
modifications: sulphation (+80 Da) of Tyr 9 of CDR-H3, 95% of heavy chain (hIgG4P, Table 7)
notes: Humanized graft

Kd [4]: 625 pM | koff [4]: 0.000186 s⁻¹ | kon [4]: 298000 M⁻¹ s⁻¹
B9: 10273 gL2-Q1RgH1-D19N-Y6F (antibody, human IgG4 S228P, kappa, V domains shown)
VH: B1 VH with Y103F
VL: B1 VL
modifications: sulphation (+80 Da) of Tyr 9 of CDR-H3, 75% of heavy chain (Table 7)
notes: Humanized graft, hIgG4P

Kd [4]: 1150 pM | koff [4]: 0.000519 s⁻¹ | kon [4]: 451000 M⁻¹ s⁻¹
B10: 10273 gL2-Q1RgH1-D19N-Y4F (antibody, human IgG4 S228P, kappa, V domains shown)
VH: B1 VH with Y101F
VL: B1 VL
modifications: sulphation (+80 Da) of Tyr 9 of CDR-H3, 85% of heavy chain (Table 7)
notes: Humanized graft, hIgG4P

koff [5]: 0.000565 s⁻¹ | kon [5]: 28700 M⁻¹ s⁻¹ | Kd [6]: 13400 pM
B11: LEKTI D5 Fab fusion (other)
heavy: EVQLLESGGGLVQPGGSLRLSCAVSGIDLSNYAINWVRQAPGKGLEWIGIIWASGTTFYATWAKGRFTISRDNSGGGGSGGGGSREIVKLCSQYQNQAKNGILFCTRENDPIRGPDGKMHGNLCSMCQAYFQAENEEKKKAEARARSGGGGGGGGSKNTVYLQMNSLRAEDTAVYYCARTVPGYSTAPYFDLWGQGTLVTVSSASTKGPSVFPLAPSSKSTSGGTAALGCLVKDYFPEPVTVSWNSGALTSGVHTFPAVLQSSGLYSLSSVVTVPSSSLGTQTYICNVNHKPSNTKVDKKVEPKSCHHHHHHHHHH
light: DIQMTQSPSSVSASVGDRVTITCQSSPSVWSNFLSWYQQKPGKAPKLLIYEASKLTSGVPSRFSGSGSGTDFTLTISSLQPEDFATYYCGGGYSSISDTTFGGGTKVEIKRTVAAPSVFIFPPSDEQLKSGTASVVCLLNNFYPREAKVQWKVDNALQSGNSQESVTEQDSKDSTYSLSSTLTLSKADYEKHKVYACEVTHQGLSSPVTKSFNRGEC
notes: also called LEKTI D5 Fab fusion protein; LEKTI D5Fab fusion protein

IC50 (read off the curve) [2]: ~50000 pM
B12: Rabbit antibody 10273 (antibody, V domains shown)
VH: QSVEESGGRLVTPGTPLTLTCTVSGFSLSSYGMSWVRQAPGKGLEWIGIISSSGSTYYASWAKGRFTISKTSTTVDLKIASPTTEDTATYFCARDHIYRYDDYGDYPTYYGMDPWGPGTLVTVSS
VL: AVVLTQTPSPMSAAVGGTVTISCQSSQSVYNNNDLAWYQQKPGQPPKLLIYRASTLASGVPSRFSGSGSGTQFTLTISGVQCDDAATYYCLGGYDDDVDTYTFGGGTEVVVK

Reference: US20230070261A1 (UCB, published 2023)
